Results: patent US20030175364A1, “Process for binding carotenoids to proteins and the products thereof” (priority 2002, published 2003)
Blank lines part the entries; values can stand above or below the molecule they belong to.

Assay: Binding of lutein to selected proteins at ng scale (hexane extraction, absorbance at 280 and 446 nm)
Protocol: The carotenoid used in this Example 3 was lutein in dry cake form (Kemin Foods, L.C., Des Moines, Iowa). The cake was dissolved in THF at a concentration of approximately 5.28 mM (3 mg lutein in 1 ml THF). Four hundred nanograms of a selected protein (bovine and chicken albumin, gamma-globulins, Kunitz inhibitor, Bowman-Birk inhibitor, whey, and soy protein isolates 873 and 891 from Archer Daniels Midland, DeKalb, Ill.) were added to 200 μl Tris buffer (1.74 g Trizma crystals and 0.42 g calcium chloride added to 250 ml de-ionized H2O, pH 8.74) together with 2 μl of the lutein/THF solution. These reaction solutions were prepared in microcentrifuge tubes (1.5 ml), mixed, and allowed to react at 4° C., overnight, and in the dark. In addition, all reactions were performed in the presence of an alternative metal ion selected from the group Mg^++, Mn^++, Fe^+++, K^+, and Ca^++(MgCl2 6H2O, MnCl24H2O, FeCl3 6H2O, KCl, and CaCl2) at 60 μM concentration.
The hexane wash, vortex and centrifuge procedure was repeated six times. The supernatant was extracted and combined from all six washes and used later to compare absorbance vs. aqueous phase.
Protein and lutein content in the protein solutions and solvents used for extraction were determined by measuring the absorbance at 280 and 446 nm using a spectrophotometer.
The results are compiled and are reported in weight:weight or mol:mol (when available) ratios.

Lutein/Protein Ratio mol/mol (Ca^2+ 60 μM): 506 mol/mol
Lutein/Protein Ratio w/w (Ca^2+ 60 μM): 4.29 w/w
Lutein/Protein Ratio mol/mol (Fe^3+ 60 μM): 365 mol/mol
Lutein/Protein Ratio w/w (Fe^3+ 60 μM): 3.1 w/w
Lutein/Protein Ratio mol/mol (K^+ 60 μM): 383 mol/mol
Lutein/Protein Ratio w/w (K^+ 60 μM): 3.24 w/w
Lutein/Protein Ratio mol/mol (Mg^+ 60 μM): 294 mol/mol
Lutein/Protein Ratio w/w (Mg^+ 60 μM): 2.49 w/w
Lutein/Protein Ratio mol/mol (w/o metal ions): 306 mol/mol
Lutein/Protein Ratio w/w (w/o metal ions): 2.59 w/w
Molecule: Bovine Serum Albumin: bovine albumin

Lutein/Protein Ratio mol/mol (Ca^2+ 60 μM): 67 mol/mol
Lutein/Protein Ratio w/w (Ca^2+ 60 μM): 0.84 w/w
Lutein/Protein Ratio mol/mol (Fe^3+ 60 μM): 71 mol/mol
Lutein/Protein Ratio w/w (Fe^3+ 60 μM): 0.9 w/w
Lutein/Protein Ratio mol/mol (K^+ 60 μM): 95 mol/mol
Lutein/Protein Ratio w/w (K^+ 60 μM): 1.2 w/w
Lutein/Protein Ratio mol/mol (Mg^+ 60 μM): 116? mol/mol
Lutein/Protein Ratio w/w (Mg^+ 60 μM): 1.16 w/w
Lutein/Protein Ratio mol/mol (w/o metal ions): 105 mol/mol
Lutein/Protein Ratio w/w (w/o metal ions): 1.33 w/w
B1: Chicken Serum Albumin: chicken albumin (protein, UniProt P19121 24-615, looked up)
Albumin: FARDAEHKSEIAHRYNDLKEETFKAVAMITFAQYLQRCSYEGLSKLVKDVVDLAQKCVANEDAPECSKPLPSIILDEICQVEKLRDSYGAMADCCSKADPERNECFLSFKVSQPDFVQPYQRPASDVICQEYQDNRVSFLGHFIYSVARRHPFLYAPAILSFAVDFEHALQSCCKESDVGACLDTKEIVMREKAKGVSVKQQYFCGILKQFGDRVFQARQLIYLSQKYPKAPFSEVSKFVHDSIGVHKECCEGDMVECMDDMARMMSNLCSQQDVFSGKIKDCCEKPIVERSQCIMEAEFDEKPADLPSLVEKYIEDKEVCKSFEAGHDAFMAEFVYEYSRRHPEFSIQLIMRIAKGYESLLEKCCKTDNPAECYANAQEQLNQHIKETQDVVKTNCDLLHDHGEADFLKSILIRYTKKMPQVPTDLLLETGKKMTTIGTKCCQLGEDRRMACSEGYLSIVIHDTCRKQETTPINDNVSQCCSQLYANRRPCFTAMGVDTKYVPPPFNPDMFSFDEKLCSAPAEEREVGQMKLLINLIKRKPQMTEEQIKTIADGFTAMVDKCCKQSDINTCFGEEGANLIVQSRATLGIGA

Lutein/Protein Ratio mol/mol (Ca^2+ 60 μM): 31 mol/mol
Lutein/Protein Ratio w/w (Ca^2+ 60 μM): 0.78 w/w
Lutein/Protein Ratio mol/mol (Fe^3+ 60 μM): 29 mol/mol
Lutein/Protein Ratio w/w (Fe^3+ 60 μM): 0.74 w/w
Lutein/Protein Ratio mol/mol (K^+ 60 μM): 24 mol/mol
Lutein/Protein Ratio w/w (K^+ 60 μM): 0.6 w/w
Lutein/Protein Ratio mol/mol (Mg^+ 60 μM): 29 mol/mol
Lutein/Protein Ratio w/w (Mg^+ 60 μM): 0.74 w/w
Lutein/Protein Ratio mol/mol (w/o metal ions): 46 mol/mol
Lutein/Protein Ratio w/w (w/o metal ions): 1.17 w/w
B2: Kunitz: soybean Kunitz proteinase inhibitor (protein, UniProt P01070 25-205, looked up)
Trypsin inhibitor A: DFVLDNEGNPLENGGTYYILSDITAFGGIRAAPTGNERCPLTVVQSRNELDKGIGTIISSPYRIRFIAEGHPLSLKFDSFAVIMLCVGIPTEWSVVEDLPEGPAVKIGENKDAMDGWFRLERVSDDEFNNYKLVFCPQQAEDDKCGDIGISIDHDDGTRRLVVSKNKPLVVQFQKLDKESL
